± gives the uncertainty stated by the source.
Assay: protein stability index of a GFP-peptide fusion (yeast GPS) (PSI 1-4); higher = more stable; sorted into four equal gates, so the index is relative within each strain
Procedure, shortened: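 Plasmids isolated from each sorting gate were PCR-amplified and Illumina-sequenced, and barcodes assigned the reads to strains. The gates, four of equal size, were set by GFP/Cherry fluorescence ratio on mid-log cultures in leucine-free medium. These cultures were yeast carrying a pooled library of tiled 17-residue yeast protein peptides fused downstream of GFP on a plasmid that also expresses Cherry. The protein stability index is the sum of every gate's read frequency times its gate number.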

Sequence: SAKMILLSDPTITIKSY [PRP8]
- protein stability index (doa10∆): 2.23 ± 0.078
- protein stability index (pdr5∆): 1.91 ± 0.09
- protein stability index (san1∆): 3.1 ± 0.099
- protein stability index (ubr1∆): 2.92 ± 0.069

Sequence: SALIENNLFRIIAELSF [YJL039C/NUP192]
- protein stability index (doa10∆): 2.22 ± 0.066
- protein stability index (pdr5∆): 2.34 ± 0.056
- protein stability index (san1∆): 2.04 ± 0.074
- protein stability index (ubr1∆): 2.53 ± 0.052

Sequence: SANVELFKRDCNQMENL [YCS4]
- protein stability index (doa10∆): 3.38 ± 0.1
- protein stability index (pdr5∆): 3.35 ± 0.09
- protein stability index (san1∆): 3.4 ± 0.062
- protein stability index (ubr1∆): 3.35 ± 0.074

Sequence: SAPAPAAAAPAPVAAAA [FAS2]
- protein stability index (doa10∆): 3.24 ± 0.24
- protein stability index (pdr5∆): 3.21 ± 0.28
- protein stability index (san1∆): 2.49 ± 0.13
- protein stability index (ubr1∆): 3.28 ± 0.29

Sequence: SASHILIPASDLSWSKQ [PRP8]
- protein stability index (doa10∆): 1.48 ± 0.069
- protein stability index (pdr5∆): 1.93 ± 0.058
- protein stability index (san1∆): 1.53 ± 0.082
- protein stability index (ubr1∆): 1.95 ± 0.038

Sequence: SAVIIDEFKDITKEVTQ [YIL149C/MLP2]
- protein stability index (doa10∆): 2.76 ± 0.088
- protein stability index (pdr5∆): 2.89 ± 0.059
- protein stability index (san1∆): 2.39 ± 0.06
- protein stability index (ubr1∆): 2.8 ± 0.068

Sequence: SAYEASMVYSNVGELIE [RRP4]
- protein stability index (doa10∆): 1.64 ± 0.057
- protein stability index (pdr5∆): 2.22 ± 0.054
- protein stability index (san1∆): 2.32 ± 0.058
- protein stability index (ubr1∆): 1.85 ± 0.048

Sequence: SCGYPSAKTRSHNWAAK [RPL37B]
- protein stability index (doa10∆): 2.95 ± 0.076
- protein stability index (pdr5∆): 3.15 ± 0.059
- protein stability index (san1∆): 3.3 ± 0.09
- protein stability index (ubr1∆): 2.91 ± 0.069

Sequence: SCISISDIISMLQISDD [RRI2]
- protein stability index (doa10∆): 1.82 ± 0.083
- protein stability index (pdr5∆): 1.34 ± 0.061
- protein stability index (san1∆): 1.19 ± 0.12
- protein stability index (ubr1∆): 1.14 ± 0.04

Sequence: SCTLLERGHPKDNARIY [POP1]
- protein stability index (doa10∆): 1.87 ± 0.056
- protein stability index (pdr5∆): 2.15 ± 0.064
- protein stability index (san1∆): 2.76 ± 0.055
- protein stability index (ubr1∆): 2.99 ± 0.063

Sequence: SDGEDGHIPWHILAVKK [SSN2]
- protein stability index (doa10∆): 3.02 ± 0.11
- protein stability index (pdr5∆): 2.97 ± 0.15
- protein stability index (san1∆): 3.23 ± 0.1
- protein stability index (ubr1∆): 3.16 ± 0.15

Sequence: SDGQSRVKDIHLRKLLD [RET1]
- protein stability index (doa10∆): 2.88 ± 0.061
- protein stability index (pdr5∆): 2.98 ± 0.067
- protein stability index (san1∆): 3.11 ± 0.068
- protein stability index (ubr1∆): 2.99 ± 0.043

Sequence: SDKPSLPSAVDGENDKK [YLR335W/NUP2]
- protein stability index (doa10∆): 3.4 ± 0.08
- protein stability index (pdr5∆): 3.42 ± 0.086
- protein stability index (san1∆): 3.37 ± 0.071
- protein stability index (ubr1∆): 3.35 ± 0.11

Sequence: SDNIASLQYINIRGNTI [SMD1]
- protein stability index (doa10∆): 3.08 ± 0.059
- protein stability index (pdr5∆): 3.22 ± 0.056
- protein stability index (san1∆): 2.86 ± 0.063
- protein stability index (ubr1∆): 3.01 ± 0.048

Sequence: SDPAAKKTATEPKQKAN [SRP21]
- protein stability index (doa10∆): 3.21 ± 0.11
- protein stability index (pdr5∆): 3.04 ± 0.09
- protein stability index (san1∆): 3.32 ± 0.046
- protein stability index (ubr1∆): 3.01 ± 0.11

Sequence: SDPNNQSLNEMVKLIVM [YJL039C/NUP192]
- protein stability index (doa10∆): 2.66 ± 0.066
- protein stability index (pdr5∆): 2.74 ± 0.052
- protein stability index (san1∆): 2.97 ± 0.078
- protein stability index (ubr1∆): 2.35 ± 0.056

Sequence: SDSLGPDTSNEICDLAY [SRB2]
- protein stability index (doa10∆): 2.95 ± 0.065
- protein stability index (pdr5∆): 3.17 ± 0.064
- protein stability index (san1∆): 3.29 ± 0.065
- protein stability index (ubr1∆): 3.31 ± 0.049

Sequence: SDWNPQADLQAMDRAHR [ISW2]
- protein stability index (doa10∆): 2.93 ± 0.16
- protein stability index (pdr5∆): 3.23 ± 0.12
- protein stability index (san1∆): 3.14 ± 0.11
- protein stability index (ubr1∆): 3.39 ± 0.18

Sequence: SEDVSRDHEKDTYRTLM [YIL149C/MLP2]
- protein stability index (doa10∆): 3.36 ± 0.047
- protein stability index (pdr5∆): 3.41 ± 0.051
- protein stability index (san1∆): 3.43 ± 0.035
- protein stability index (ubr1∆): 3.33 ± 0.047

Sequence: SEEPTDFGFDLDIEKEA [MCD1]
- protein stability index (doa10∆): 2.77 ± 0.25
- protein stability index (ubr1∆): 3.24 ± 0.14

Sequence: SEKQNDEEAAGASTVMK [PRP8]
- protein stability index (doa10∆): 3.36 ± 0.15
- protein stability index (pdr5∆): 3.18 ± 0.093
- protein stability index (san1∆): 3.38 ± 0.11
- protein stability index (ubr1∆): 3.43 ± 0.11

Sequence: SELIRTTLDAEKVFTQG [FAS1]
- protein stability index (doa10∆): 3.14 ± 0.067
- protein stability index (pdr5∆): 3.16 ± 0.066
- protein stability index (san1∆): 3.22 ± 0.079
- protein stability index (ubr1∆): 3.08 ± 0.07

Sequence: SELQRLSHENNVMLEKI [RPT5]
- protein stability index (doa10∆): 3 ± 0.11
- protein stability index (pdr5∆): 3.1 ± 0.068
- protein stability index (san1∆): 2.89 ± 0.063
- protein stability index (ubr1∆): 2.9 ± 0.051

Sequence: SENRDKFLQEFINLLLN [IRR1]
- protein stability index (doa10∆): 2.53 ± 0.069
- protein stability index (pdr5∆): 2.07 ± 0.083
- protein stability index (san1∆): 2.43 ± 0.076
- protein stability index (ubr1∆): 2.21 ± 0.069

Sequence: SESKQLGNTSSVANTPS [SWI3]
- protein stability index (doa10∆): 3.08 ± 0.071
- protein stability index (pdr5∆): 2.56 ± 0.057
- protein stability index (san1∆): 2.98 ± 0.073
- protein stability index (ubr1∆): 2.94 ± 0.046

Sequence: SESVGAFLSFLAYRNYW [YJL039C/NUP192]
- protein stability index (doa10∆): 1.69 ± 0.073
- protein stability index (pdr5∆): 1.97 ± 0.11
- protein stability index (san1∆): 1.72 ± 0.12
- protein stability index (ubr1∆): 1.84 ± 0.084

Sequence: SEVLVDTLDSKSNGSSD [ISW2]
- protein stability index (doa10∆): 3.07 ± 0.07
- protein stability index (pdr5∆): 3.15 ± 0.066
- protein stability index (san1∆): 3.11 ± 0.054
- protein stability index (ubr1∆): 3.04 ± 0.058

Sequence: SFDFGNENEDEDEGTLN [ARP9]
- protein stability index (doa10∆): 3.56 ± 0.14
- protein stability index (pdr5∆): 3.38 ± 0.25
- protein stability index (san1∆): 3.41 ± 0.1

Sequence: SFFIASQLQEQFNKILP [FAS1]
- protein stability index (doa10∆): 2.69 ± 0.15
- protein stability index (pdr5∆): 3.13 ± 0.15
- protein stability index (san1∆): 2.54 ± 0.081
- protein stability index (ubr1∆): 2.77 ± 0.07

Sequence: SFKGSPNERKAKQAKIR [SNF2]
- protein stability index (doa10∆): 3.36 ± 0.12
- protein stability index (pdr5∆): 3.56 ± 0.12
- protein stability index (san1∆): 3.39 ± 0.18
- protein stability index (ubr1∆): 3.12 ± 0.15

Sequence: SFQKNSLHNTEKIMENK [AAR2]
- protein stability index (doa10∆): 3.08 ± 0.057
- protein stability index (pdr5∆): 3.22 ± 0.066
- protein stability index (san1∆): 2.93 ± 0.042
- protein stability index (ubr1∆): 2.96 ± 0.049

Sequence: SFSDENSDDFFMDNSYD [ESC2]
- protein stability index (doa10∆): 1.97 ± 0.068
- protein stability index (pdr5∆): 1.8 ± 0.11
- protein stability index (san1∆): 2.63 ± 0.1
- protein stability index (ubr1∆): 1.81 ± 0.062

Sequence: SFYDAIFFNIPLVAHLG [YJL039C/NUP192]
- protein stability index (doa10∆): 1.73 ± 0.037
- protein stability index (pdr5∆): 1.23 ± 0.042
- protein stability index (san1∆): 2.02 ± 0.027
- protein stability index (ubr1∆): 1.22 ± 0.034

Sequence: SGEPIIAATQDFITGSY [RPO31]
- protein stability index (doa10∆): 3.36 ± 0.1
- protein stability index (pdr5∆): 3.3 ± 0.095
- protein stability index (san1∆): 3.13 ± 0.12
- protein stability index (ubr1∆): 3.18 ± 0.039

Sequence: SGHFSTDSRTGQSTILV [CDC53]
- protein stability index (doa10∆): 2.83 ± 0.047
- protein stability index (pdr5∆): 2.8 ± 0.052
- protein stability index (san1∆): 3.05 ± 0.038
- protein stability index (ubr1∆): 3.11 ± 0.042

Sequence: SGITDPYEMYKYVHVSE [FAS2]
- protein stability index (doa10∆): 2.33 ± 0.072
- protein stability index (pdr5∆): 2.63 ± 0.074
- protein stability index (san1∆): 2.48 ± 0.07
- protein stability index (ubr1∆): 2.4 ± 0.069

Sequence: SGLFVDVKKRTYEAIDV [RPB2]
- protein stability index (doa10∆): 2.48 ± 0.12
- protein stability index (pdr5∆): 3.28 ± 0.12
- protein stability index (san1∆): 2.99 ± 0.1
- protein stability index (ubr1∆): 3.14 ± 0.097

Sequence: SGNIQLDEIIEIARQMR [RPL12A]
- protein stability index (doa10∆): 3.07 ± 0.12
- protein stability index (pdr5∆): 3 ± 0.12
- protein stability index (san1∆): 3.05 ± 0.08
- protein stability index (ubr1∆): 3.35 ± 0.14

Sequence: SGNTNGAGSAFGFSSSG [YOR098C/NUP1]
- protein stability index (doa10∆): 3.25 ± 0.071
- protein stability index (pdr5∆): 3.13 ± 0.064
- protein stability index (san1∆): 3.07 ± 0.064
- protein stability index (ubr1∆): 3.02 ± 0.087

Sequence: SGQTFAYGVLDSNYKWD [PRE2]
- protein stability index (doa10∆): 2.39 ± 0.075
- protein stability index (pdr5∆): 2.76 ± 0.098
- protein stability index (san1∆): 1.85 ± 0.14
- protein stability index (ubr1∆): 2.7 ± 0.11

Sequence: SGRCDGYILEGEELAFY [RPS8A]
- protein stability index (doa10∆): 3.32 ± 0.12
- protein stability index (pdr5∆): 3.44 ± 0.12
- protein stability index (san1∆): 3.29 ± 0.093
- protein stability index (ubr1∆): 3.36 ± 0.074

Sequence: SGTSSDPDTKKVKESPA [YIL149C/MLP2]
- protein stability index (doa10∆): 3.21 ± 0.059
- protein stability index (pdr5∆): 3.2 ± 0.046
- protein stability index (san1∆): 3.14 ± 0.038
- protein stability index (ubr1∆): 3.23 ± 0.061

Sequence: SGTYHLNCGNGMGIGFI [POP1]
- protein stability index (doa10∆): 3.07 ± 0.077
- protein stability index (pdr5∆): 2.93 ± 0.063
- protein stability index (san1∆): 2.44 ± 0.077
- protein stability index (ubr1∆): 3.11 ± 0.041

Sequence: SGYVRSRGESDDSLNRL [RPS21A]
- protein stability index (doa10∆): 2.94 ± 0.14
- protein stability index (pdr5∆): 1.85 ± 0.074
- protein stability index (san1∆): 2.17 ± 0.084
- protein stability index (ubr1∆): 2.88 ± 0.059

Sequence: SHFVSAVSTIASISLAI [RPP0]
- protein stability index (doa10∆): 1.81 ± 0.073
- protein stability index (pdr5∆): 1.37 ± 0.073
- protein stability index (san1∆): 1.21 ± 0.13
- protein stability index (ubr1∆): 1.11 ± 0.066

Sequence: SHGNPVVDFLKRNGSTL [FAS1]
- protein stability index (doa10∆): 3.02 ± 0.052
- protein stability index (pdr5∆): 3.17 ± 0.049
- protein stability index (san1∆): 3.1 ± 0.043
- protein stability index (ubr1∆): 3.11 ± 0.038

Sequence: SHILNSHSLALNEITNS [DSN1]
- protein stability index (doa10∆): 2.14 ± 0.033
- protein stability index (pdr5∆): 2.41 ± 0.035
- protein stability index (san1∆): 2.28 ± 0.037
- protein stability index (ubr1∆): 2.36 ± 0.03
